Assay results taken from the supplement of paper PMC10126150.
± gives the standard deviation of the averaged measurements.

System: ATP
Assay: switch fluorescence ratio, 500 uM ATP over buffer (Cy3 cluster intensity, sum of 5 cycles each) (fold (ratio)); higher = stronger signal-on switching upon ATP binding; sequences stand for … in TCGTCGGCAGCGTCAGATGTGTATAAGAGACAGTTTTTTTTTTTTTTTTTTTTTTTTT…TC
Conditions: aptamer strand: ATP DNA aptamer (quencher-CACCTGGGGGAGTATTGCGGAGGAAGG + anchor), 100 nM annealed; ATP concentration: 500 uM
Outline: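 Switching-strand clusters labelled with Cy3 on a modified Illumina MiSeq flow-cell were annealed to 100 nM quencher-labelled ATP aptamer, imaged in selection buffer, and re-imaged after 15 min with 500 uM ATP at 22 °C. This was done over five cycles with NaOH stripping and re-annealing in between. The fluorescence ratio is summed target-cycle over summed buffer-cycle Cy3 intensity per cluster, averaged per switch-domain sequence, excluding clusters outside 100-1000 RFU.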
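Further: ATP exposure 15 min at 22 °C before imaging.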

With AATTGG as the sequence, how does the switch fluorescence ratio read?
The switch fluorescence ratio was 0.992 ± 0.018.

How did the switch fluorescence ratio turn out when AATTGGAGTG was run?
The switch fluorescence ratio was 0.998 ± 0.041.

AATTGGCGGT was tested. Which switch fluorescence ratio did it give?
Its switch fluorescence ratio is 1.03 ± 0.027.

How did the switch fluorescence ratio turn out when AATTGGGGTA was run?
The switch fluorescence ratio was 0.989 ± 0.026.

Which switch fluorescence ratio does the source give for AATTGGGGTC here?
Its switch fluorescence ratio is 0.967 ± 0.031.

How did the switch fluorescence ratio turn out when AATTGGGTTA was run?
Its switch fluorescence ratio is 0.976 ± 0.023.

AATTGGTCCT was tested. Which switch fluorescence ratio did it give?
Its switch fluorescence ratio is 0.986 ± 0.041.

AATTGGTGCG was tested. Which switch fluorescence ratio did it give?
The switch fluorescence ratio was 0.985 ± 0.035.

How did the switch fluorescence ratio turn out when AATTGTATCA was run?
The switch fluorescence ratio was 1 ± 0.054.

With AATTGTATCT as the sequence, how does the switch fluorescence ratio read?
Its switch fluorescence ratio is 1.01 ± 0.063.

How did the switch fluorescence ratio turn out when AATTGTGGGC was run?
Its switch fluorescence ratio is 0.978 ± 0.047.

With AATTGTTAGT as the sequence, how does the switch fluorescence ratio read?
The switch fluorescence ratio was 0.994 ± 0.03.

For AATTGTTATT, which switch fluorescence ratio is on record?
Its switch fluorescence ratio is 0.9919 ± 0.0034.

For AATTGTTGCG, which switch fluorescence ratio is on record?
The switch fluorescence ratio was 0.974 ± 0.015.

With AATTTAAGGC as the sequence, how does the switch fluorescence ratio read?
Its switch fluorescence ratio is 0.985 ± 0.078.

How did the switch fluorescence ratio turn out when AATTTACTCT was run?
The switch fluorescence ratio was 1.07 ± 0.018.

AATTTACTGG was tested. Which switch fluorescence ratio did it give?
Its switch fluorescence ratio is 1.13 ± 0.084.

For AATTTAGCCA, which switch fluorescence ratio is on record?
The switch fluorescence ratio was 1.02 ± 0.018.

Which switch fluorescence ratio does the source give for AATTTAGGAA here?
The switch fluorescence ratio was 0.975 ± 0.037.

For AATTTATAAT, which switch fluorescence ratio is on record?
The switch fluorescence ratio was 1.01 ± 0.036.

How did the switch fluorescence ratio turn out when AATTTCAAGT was run?
Its switch fluorescence ratio is 1 ± 0.039.

AATTTCATGT was tested. Which switch fluorescence ratio did it give?
The switch fluorescence ratio was 1.01 ± 0.012.

With AATTTGAGCC as the sequence, how does the switch fluorescence ratio read?
Its switch fluorescence ratio is 0.965 ± 0.039.

With AATTTGGCGT as the sequence, how does the switch fluorescence ratio read?
The switch fluorescence ratio was 0.968 ± 0.011.

How did the switch fluorescence ratio turn out when AATTTGGCTG was run?
The switch fluorescence ratio was 1.22 ± 0.29.

For AATTTGGGAG, which switch fluorescence ratio is on record?
Its switch fluorescence ratio is 1.01 ± 0.025.

For AATTTGGGTC, which switch fluorescence ratio is on record?
Its switch fluorescence ratio is 0.981 ± 0.016.

For AATTTGGGTG, which switch fluorescence ratio is on record?
The switch fluorescence ratio was 1.04 ± 0.049.

How did the switch fluorescence ratio turn out when AATTTGTCAT was run?
The switch fluorescence ratio was 0.972 ± 0.045.

With AATTTGTTGG as the sequence, how does the switch fluorescence ratio read?
The switch fluorescence ratio was 0.996 ± 0.017.

AATTTGTTGT was tested. Which switch fluorescence ratio did it give?
The switch fluorescence ratio was 0.996 ± 0.025.

For AATTTTAAAT, which switch fluorescence ratio is on record?
Its switch fluorescence ratio is 1.09 ± 0.21.

For AATTTTAACT, which switch fluorescence ratio is on record?
The switch fluorescence ratio was 1.022 ± 0.0064.

How did the switch fluorescence ratio turn out when AATTTTGATG was run?
Its switch fluorescence ratio is 0.971 ± 0.018.

How did the switch fluorescence ratio turn out when AATTTTTAAG was run?
Its switch fluorescence ratio is 0.997 ± 0.011.

Which switch fluorescence ratio does the source give for AATTTTTCAG here?
Its switch fluorescence ratio is 0.985 ± 0.018.

Which switch fluorescence ratio does the source give for AATTTTTCGT here?
The switch fluorescence ratio was 1 ± 0.027.

How did the switch fluorescence ratio turn out when AATTTTTGTC was run?
The switch fluorescence ratio was 1.01 ± 0.023.

For AATTTTTTTC, which switch fluorescence ratio is on record?
The switch fluorescence ratio was 0.989 ± 0.015.

With ACAAAAATAG as the sequence, how does the switch fluorescence ratio read?
The switch fluorescence ratio was 0.993 ± 0.04.

For ACAAACCACC, which switch fluorescence ratio is on record?
Its switch fluorescence ratio is 1.34 ± 0.057.

For ACAAACGGCA, which switch fluorescence ratio is on record?
The switch fluorescence ratio was 1.33 ± 0.024.

With ACAAAGGGAC as the sequence, how does the switch fluorescence ratio read?
The switch fluorescence ratio was 1.06 ± 0.12.

Which switch fluorescence ratio does the source give for ACAAAGGGGG here?
Its switch fluorescence ratio is 0.92 ± 0.087.

For ACAAAGGTCG, which switch fluorescence ratio is on record?
Its switch fluorescence ratio is 1.01 ± 0.022.

ACAAATATAT was tested. Which switch fluorescence ratio did it give?
The switch fluorescence ratio was 1.17 ± 0.081.

With ACAAATGGCA as the sequence, how does the switch fluorescence ratio read?
Its switch fluorescence ratio is 1.07 ± 0.037.

For ACAACCGCTT, which switch fluorescence ratio is on record?
Its switch fluorescence ratio is 1.13 ± 0.017.

With ACAACGAAAG as the sequence, how does the switch fluorescence ratio read?
The switch fluorescence ratio was 1.039 ± 0.0061.

How did the switch fluorescence ratio turn out when ACAACGAGGT was run?
The switch fluorescence ratio was 1.015 ± 0.0093.

For ACAACTCAGG, which switch fluorescence ratio is on record?
The switch fluorescence ratio was 1.22 ± 0.022.

For ACAAGATACG, which switch fluorescence ratio is on record?
The switch fluorescence ratio was 1.13 ± 0.013.

For ACAAGGATTC, which switch fluorescence ratio is on record?
The switch fluorescence ratio was 0.995 ± 0.025.

For ACAAGGGAGA, which switch fluorescence ratio is on record?
Its switch fluorescence ratio is 1.06 ± 0.012.

Which switch fluorescence ratio does the source give for ACAAGTGACG here?
The switch fluorescence ratio was 0.988 ± 0.026.

For ACAAGTGTTC, which switch fluorescence ratio is on record?
Its switch fluorescence ratio is 1 ± 0.051.

ACAAGTTGGA was tested. Which switch fluorescence ratio did it give?
The switch fluorescence ratio was 1.11 ± 0.061.

For ACAATATGGG, which switch fluorescence ratio is on record?
The switch fluorescence ratio was 1.01 ± 0.079.

With ACAATGGCAC as the sequence, how does the switch fluorescence ratio read?
Its switch fluorescence ratio is 1.06 ± 0.029.

With ACAATTGACT as the sequence, how does the switch fluorescence ratio read?
The switch fluorescence ratio was 1.099 ± 0.0039.

Which switch fluorescence ratio does the source give for ACAATTGGAG here?
The switch fluorescence ratio was 0.9969 ± 0.0044.

Which switch fluorescence ratio does the source give for ACACAATAGG here?
Its switch fluorescence ratio is 1.04 ± 0.025.

For ACACAGTAGT, which switch fluorescence ratio is on record?
The switch fluorescence ratio was 1.03 ± 0.011.

ACACCGTCTA was tested. Which switch fluorescence ratio did it give?
Its switch fluorescence ratio is 1.11 ± 0.023.

Which switch fluorescence ratio does the source give for ACACCTTTTT here?
Its switch fluorescence ratio is 1.04 ± 0.032.

Which switch fluorescence ratio does the source give for ACACGCGCCT here?
Its switch fluorescence ratio is 1.08 ± 0.011.

ACACGGGAAG was tested. Which switch fluorescence ratio did it give?
Its switch fluorescence ratio is 1.02 ± 0.011.

For ACACGGGATG, which switch fluorescence ratio is on record?
The switch fluorescence ratio was 1.06 ± 0.077.

With ACACGGGGTG as the sequence, how does the switch fluorescence ratio read?
The switch fluorescence ratio was 1.018 ± 0.0018.

With ACACGTAACT as the sequence, how does the switch fluorescence ratio read?
The switch fluorescence ratio was 1.359 ± 0.0099.

For ACACGTTGGC, which switch fluorescence ratio is on record?
Its switch fluorescence ratio is 1.05 ± 0.06.

How did the switch fluorescence ratio turn out when ACACTAGGTG was run?
Its switch fluorescence ratio is 1.42 ± 0.023.

For ACACTGCTTA, which switch fluorescence ratio is on record?
The switch fluorescence ratio was 1.02 ± 0.044.

Which switch fluorescence ratio does the source give for ACACTTTACT here?
Its switch fluorescence ratio is 1.32 ± 0.014.

How did the switch fluorescence ratio turn out when ACAGAAAGAC was run?
Its switch fluorescence ratio is 1.15 ± 0.27.

With ACAGAAGGGA as the sequence, how does the switch fluorescence ratio read?
The switch fluorescence ratio was 1.03 ± 0.068.

With ACAGATAAAG as the sequence, how does the switch fluorescence ratio read?
The switch fluorescence ratio was 0.97 ± 0.045.

ACAGCAGTGT was tested. Which switch fluorescence ratio did it give?
Its switch fluorescence ratio is 1.03 ± 0.035.

With ACAGCATGGA as the sequence, how does the switch fluorescence ratio read?
The switch fluorescence ratio was 1.04 ± 0.048.

For ACAGCATTTT, which switch fluorescence ratio is on record?
The switch fluorescence ratio was 1.03 ± 0.0072.

With ACAGCCTGCC as the sequence, how does the switch fluorescence ratio read?
The switch fluorescence ratio was 1.3 ± 0.07.

With ACAGCGGGTG as the sequence, how does the switch fluorescence ratio read?
Its switch fluorescence ratio is 1.087 ± 0.01.

ACAGCTTCTA was tested. Which switch fluorescence ratio did it give?
Its switch fluorescence ratio is 1.03 ± 0.021.

ACAGCTTTTT was tested. Which switch fluorescence ratio did it give?
The switch fluorescence ratio was 1.01 ± 0.013.

ACAGGGATCA was tested. Which switch fluorescence ratio did it give?
Its switch fluorescence ratio is 0.981 ± 0.052.

How did the switch fluorescence ratio turn out when ACAGGGGGCC was run?
The switch fluorescence ratio was 1.08 ± 0.12.

ACAGGGGGGA was tested. Which switch fluorescence ratio did it give?
The switch fluorescence ratio was 1.05 ± 0.046.

Which switch fluorescence ratio does the source give for ACAGGGGGTA here?
Its switch fluorescence ratio is 1.02 ± 0.024.

With ACAGGGTTGG as the sequence, how does the switch fluorescence ratio read?
The switch fluorescence ratio was 1.02 ± 0.03.

Which switch fluorescence ratio does the source give for ACAGGGTTGT here?
The switch fluorescence ratio was 0.979 ± 0.013.

How did the switch fluorescence ratio turn out when ACAGTAAGAG was run?
Its switch fluorescence ratio is 1.03 ± 0.049.

Which switch fluorescence ratio does the source give for ACAGTAAGTT here?
The switch fluorescence ratio was 1.07 ± 0.016.

How did the switch fluorescence ratio turn out when ACAGTCGGGC was run?
The switch fluorescence ratio was 1.001 ± 0.0073.

For ACAGTGTCTT, which switch fluorescence ratio is on record?
The switch fluorescence ratio was 1.01 ± 0.03.

Which switch fluorescence ratio does the source give for ACAGTTATTG here?
The switch fluorescence ratio was 1.016 ± 0.0077.

ACAGTTCGGG was tested. Which switch fluorescence ratio did it give?
The switch fluorescence ratio was 0.9653 ± 0.0051.

With ACAGTTGGCC as the sequence, how does the switch fluorescence ratio read?
Its switch fluorescence ratio is 1.02 ± 0.021.

How did the switch fluorescence ratio turn out when ACAGTTGGCT was run?
The switch fluorescence ratio was 1.0179 ± 0.00096.

With ACAGTTGTAT as the sequence, how does the switch fluorescence ratio read?
Its switch fluorescence ratio is 1.015 ± 0.01.

For ACATAATTGA, which switch fluorescence ratio is on record?
Its switch fluorescence ratio is 1.03 ± 0.017.
